# Experimental data as given in patent publication US20210017287A1 (published 2021).
# T1: TNFRSF25-Fc fusion protein (UniProt Q93038 25-199, limits assumed, biotinylated in the capture ELISA (site not stated))
# T1 construct: also called TNFRSF25-Fc protein; biotinylated antigen protein; not shown: Fc part
# T1 sequence (looked up): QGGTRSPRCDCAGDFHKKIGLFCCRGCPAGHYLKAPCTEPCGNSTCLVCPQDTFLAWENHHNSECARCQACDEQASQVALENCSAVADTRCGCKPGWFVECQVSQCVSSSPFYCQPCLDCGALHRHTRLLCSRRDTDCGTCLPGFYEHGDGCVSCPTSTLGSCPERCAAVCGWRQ
# Target: T1, TNFRSF25-Fc fusion protein
# Assay: capture ELISA of scFv, against W3072-z4C12-scFv
# Method: (§1) Primary screening of the scFv library: The primary screen consisted of a single point ELISA (SPE) assay, which was carried out using periplasmic extract (PE) of bacteria grown in 96-well (deep well) plates. Briefly, this capture ELISA involved coating individual wells of a 96-well Maxisorp Immunoplate with anti-c-myc antibody in coating buffer (200 mM Na₂CO₃/NaHCO₃) at pH 9.2 overnight at 4° C. The next day, the plate was blocked with Casein for 1 hour at room temperature. scFv PE was then added to the plate and incubated at room temperature for 1 hour. After washing, biotinylated antigen protein was added to the well and the mixture was incubated for 1 hour at room temperature. This was followed by incubation with streptavidin-horseradish peroxidase (HRP) conjugate for 1 hour at room temperature. HRP activity was detected with tetra-methyl-benzidine (TMB) substrate, and the reaction was quenched with 2M HCl. Plates were read at 450 nm. […] The scFv protein concentration was determined by comparing the ELISA signals with signals generated by the reference scFv. The binding assay was repeated once more for all positive variants under normalized scFv concentrations in order to determine the relative binding affinity of the mutant scFv and the parental antibody. Selected scFv hits displaying improved binding were re-formulated to IgG1 and tested in a caspase-3 assay as described below.
row,fold increase in ELISA signal,Binder
1,> 10 fold,"42G2 (scFv, V domains shown, scFv) VH: EVQLVESGGGLSQPGNSLQLSCEASGFTFSNHDLNWVRQAPGKGLEWVAYISSASGLISYADAVRGRFTISRDNAKNSLFLQMNNLKSEDTAMYYCARDPPYSGLYALDFWGQGTQVTVSS VL: QPVLTQSPSASASLSGSVKLTCTLSSELSWYTIVWYQQRPDKAPKYVMYLKSDGSHSKGDGIPDRFSGSSSGAHRYLSISNVQSEDDATYFCGAGYTLAGQYGWVFGSGTKVTVL"

# Target: T1, TNFRSF25-Fc fusion protein
# Assay: single point capture ELISA, scFv captured by anti-c-myc, biotinylated antigen
# Method: as §1
row,OD450,Binder
1,2.33 OD450,"42F9 (scFv, V domains shown) VH: EVQLVESGGGLSQPGNSLQLSCEASGFTFSNHDLNWVRQAPGKGLEWVAYISSASGLISYADAVRGRFTISRDNAKNSLFLQMNNLKSEDTAMYYCARDPPYSGLYALDFWGQGTQVTVSS VL: QPVLTQSPSASASLSGSVKLTCTLSSELSFYTIVWYQQRPDKAPKYVMYLKSDGSHSKGDGIPDRFSGSSSGAHRYLSISNVQSEDDATYFCGAGYTLAGQYGWVFGSGTKVTVL"
2,0.4 OD450,"66B8 (scFv, V domains shown) VH: EVQLVESGGGLSQPGNSLQLSCEASGFTFSNHDLNWVRQAPGKGLEWVAYISSASGLISYADAVRGRFTISRDNAKNSLFLQMNNLKSEDTAMYYCARDPPYSGLYALDFWGQGTQVTVSS VL: QPVLTQSPSASASLSGSVKLTCTLSSELSSYTIVWYQQRPDKAPKYVMYLKSDGSHSKGDGIPDRFSGSSSGAHRYLSISNVQSEDDATYFCGAGYTLANQYGWVFGSGTKVTVL"
3,1.6 OD450,"43F11 (scFv, V domains shown) VH: EVQLVESGGGLSQPGNSLQLSCEASGFTFSNHDLNWVRQAPGKGLEWVAYISSASGLISYADAVRGRFTISRDNAKNSLFLQMNNLKSEDTAMYYCARDPPYSGLYALDFWGQGTQVTVSS VL: QPVLTQSPSASASLSGSVKLTCTLSSELSSFTIVWYQQRPDKAPKYVMYLKSDGSHSKGDGIPDRFSGSSSGAHRYLSISNVQSEDDATYFCGAGYTLAGQYGWVFGSGTKVTVL"
4,1.67 OD450,"42H8 (scFv, V domains shown) VH: EVQLVESGGGLSQPGNSLQLSCEASGFTFSNHDLNWVRQAPGKGLEWVAYISSASGLISYADAVRGRFTISRDNAKNSLFLQMNNLKSEDTAMYYCARDPPYSGLYALDFWGQGTQVTVSS VL: QPVLTQSPSASASLSGSVKLTCTLSSELSYYTIVWYQQRPDKAPKYVMYLKSDGSHSKGDGIPDRFSGSSSGAHRYLSISNVQSEDDATYFCGAGYTLAGQYGWVFGSGTKVTVL"
5,0.7 OD450,"10C3 (scFv, V domains shown, scFv) VH: EVQLVESGGGLSQPGNSLQLSCEASGFTFSNHDLNWVRQAPGKGLEWVAYISSDSGLISYADAVRGRFTISRDNAKNSLFLQMNNLKSEDTAMYYCARDPPYSGLYALDFWGQGTQVTVSS VL: QPVLTQSPSASASLSGSVKLTCTLSSELSSYTIVWYQQRPDKAPKYVMYLKSDGSHSKGDGIPDRFSGSSSGAHRYLSISNVQSEDDATYFCGAGYTLAGQYGWVFGSGTKVTVL"
6,3.19 OD450,"42G2 (scFv, V domains shown, scFv) VH: EVQLVESGGGLSQPGNSLQLSCEASGFTFSNHDLNWVRQAPGKGLEWVAYISSASGLISYADAVRGRFTISRDNAKNSLFLQMNNLKSEDTAMYYCARDPPYSGLYALDFWGQGTQVTVSS VL: QPVLTQSPSASASLSGSVKLTCTLSSELSWYTIVWYQQRPDKAPKYVMYLKSDGSHSKGDGIPDRFSGSSSGAHRYLSISNVQSEDDATYFCGAGYTLAGQYGWVFGSGTKVTVL"
7,0.85 OD450,"12F7 (scFv, V domains shown, scFv; Position 12 is a library position read from the clone ID) VH: EVQLVESGGGLSQPGNSLQLSCEASGFTFSNHDLNWVRQAPGKGLEWVAYISSASQLISYADAVRGRFTISRDNAKNSLFLQMNNLKSEDTAMYYCARDPPYSGLYALDFWGQGTQVTVSS VL: QPVLTQSPSASASLSGSVKLTCTLSSELSSYTIVWYQQRPDKAPKYVMYLKSDGSHSKGDGIPDRFSGSSSGAHRYLSISNVQSEDDATYFCGAGYTLAGQYGWVFGSGTKVTVL"

# Target: T1, TNFRSF25-Fc fusion protein
# Assay: binding ELISA of scFv clones on TNFRSF25-Fc (FIG. 10)
row,Binder,Bmax
1,"1F10 (scFv, V domains shown, scFv; Frameworks and unchanged CDRs are those of the parental clone) VH: EVQLVESGGGLSQPGNSLQLSCEASGFTFSNHDLNWVRQAPGKGLEWVAYISSASGLISYADAVRGRFTISRDNAKNSLFLQMNNLKSEDTAMYYCARDPAYTGLYALDFWGQGTQVTVSS VL: QPVLTQSPSASASLSGSVKLTCTLSSELSNFTIVWYQQRPDKAPKYVMYLKSDGSHSKGDGIPDRFSGSSSGAHRYLSISNVQSEDDATYFCGAGYTLASQYGWVFGSGTKVTVL",1.73
2,"6G11 (scFv, V domains shown, scFv; Frameworks and unchanged CDRs are those of the parental clone) VH: EVQLVESGGGLSQPGNSLQLSCEASGFTFSNHDLNWVRQAPGKGLEWVAYISSASGLISYADAVRGRFTISRDNAKNSLFLQMNNLKSEDTAMYYCARDPPYSGLYALDFWGQGTQVTVSS VL: QPVLTQSPSASASLSGSVKLTCTLSSELSNFTIVWYQQRPDKAPKYVMYLKSDGSHSKGDGIPDRFSGSSSGAHRYLSISNVQSEDDATYFCGAGYTLAGQYGWVFGSGTKVTVL",1.32
3,"4B6 (scFv, V domains shown, scFv; Frameworks and unchanged CDRs are those of the parental clone) VH: EVQLVESGGGLSQPGNSLQLSCEASGFTFSNHDLNWVRQAPGKGLEWVAYISSASGLISYADAVRGRFTISRDNAKNSLFLQMNNLKSEDTAMYYCARDPAYTGLYALDFWGQGTQVTVSS VL: QPVLTQSPSASASLSGSVKLTCTLSSELSNYTIVWYQQRPDKAPKYVMYLKSDGSHSKGDGIPDRFSGSSSGAHRYLSISNVQSEDDATYFCGAGYTLANQYGWVFGSGTKVTVL",1.26
4,"2A5 (scFv, V domains shown, scFv; Frameworks and unchanged CDRs are those of the parental clone) VH: EVQLVESGGGLSQPGNSLQLSCEASGFTFSNHDLNWVRQAPGKGLEWVAYISSASGLISYADAVRGRFTISRDNAKNSLFLQMNNLKSEDTAMYYCARDPAYTGLYALDFWGQGTQVTVSS VL: QPVLTQSPSASASLSGSVKLTCTLSSELSNFTIVWYQQRPDKAPKYVMYLKSDGSHSKGDGIPDRFSGSSSGAHRYLSISNVQSEDDATYFCGMGYTLANQYGWVFGSGTKVTVL",1.28
5,"3G4 (scFv, V domains shown, scFv; Frameworks and unchanged CDRs are those of the parental clone) VH: EVQLVESGGGLSQPGNSLQLSCEASGFTFSNHDLNWVRQAPGKGLEWVAYISSASGLISYADAVRGRFTISRDNAKNSLFLQMNNLKSEDTAMYYCARDPAYTGLYALDFWGQGTQVTVSS VL: QPVLTQSPSASASLSGSVKLTCTLSSELSGFTIVWYQQRPDKAPKYVMYLKSDGSHSKGDGIPDRFSGSSSGAHRYLSISNVQSEDDATYFCGAGYTLARQYGWVFGSGTKVTVL",1.53
6,"9G2 (scFv, V domains shown, scFv; Frameworks and unchanged CDRs are those of the parental clone) VH: EVQLVESGGGLSQPGNSLQLSCEASGFTFSNHDLNWVRQAPGKGLEWVAYISSASGLISYADAVRGRFTISRDNAKNSLFLQMNNLKSEDTAMYYCARDPAYTGLYALDFWGQGTQVTVSS VL: QPVLTQSPSASASLSGSVKLTCTLSSELSWYTIVWYQQRPDKAPKYVMYLKSDGSHSKGDGIPDRFSGSSSGAHRYLSISNVQSEDDATYFCGAGYTLAGQYGWVFGSGTKVTVL",1.04
7,"9A5 (scFv, V domains shown, scFv; Frameworks and unchanged CDRs are those of the parental clone) VH: EVQLVESGGGLSQPGNSLQLSCEASGFTFSNHDLNWVRQAPGKGLEWVAYISSASGLISYADAVRGRFTISRDNAKNSLFLQMNNLKSEDTAMYYCARDPAYTGLYALDFWGQGTQVTVSS VL: QPVLTQSPSASASLSGSVKLTCTLSSELSGFTIVWYQQRPDKAPKYVMYLKSDGSHSKGDGIPDRFSGSSSGAHRYLSISNVQSEDDATYFCGAGYTLANQYGWVFGSGTKVTVL",1.81
8,"5E1 (scFv, V domains shown, scFv; Frameworks and unchanged CDRs are those of the parental clone) VH: EVQLVESGGGLSQPGNSLQLSCEASGFTFSNHDLNWVRQAPGKGLEWVAYISSASGLISYADAVRGRFTISRDNAKNSLFLQMNNLKSEDTAMYYCARDPAYTGLYALDFWGQGTQVTVSS VL: QPVLTQSPSASASLSGSVKLTCTLSSELSNYTIVWYQQRPDKAPKYVMYLKSDGSHSKGDGIPDRFSGSSSGAHRYLSISNVQSEDDATYFCGMGYTLANQYGWVFGSGTKVTVL",1.32
9,"5A6 (scFv, V domains shown, scFv; Frameworks and unchanged CDRs are those of the parental clone) VH: EVQLVESGGGLSQPGNSLQLSCEASGFTFSNHDLNWVRQAPGKGLEWVAYISSASGLISYADAVRGRFTISRDNAKNSLFLQMNNLKSEDTAMYYCARDPPYTGLYALDFWGQGTQVTVSS VL: QPVLTQSPSASASLSGSVKLTCTLSSELSNFTIVWYQQRPDKAPKYVMYLKSDGSHSKGDGIPDRFSGSSSGAHRYLSISNVQSEDDATYFCGAGYTLANQYGWVFGSGTKVTVL",1.89

# The remaining lines, values ahead:
row,Bmax,Binder
1,0.1,"W3072-z4C12-scFv (scFv, V domains shown, scFv (captured by anti-c-myc antibody); also called WT; wild-type) VH: EVQLVESGGGLSQPGNSLQLSCEASGFTFSNHDLNWVRQAPGKGLEWVAYISSASGLISYADAVRGRFTISRDNAKNSLFLQMNNLKSEDTAMYYCARDPPYSGLYALDFWGQGTQVTVSS VL: QPVLTQSPSASASLSGSVKLTCTLSSELSSYTIVWYQQRPDKAPKYVMYLKSDGSHSKGDGIPDRFSGSSSGAHRYLSISNVQSEDDATYFCGAGYTLAGQYGWVFGSGTKVTVL"
2,1.49,"10B8 (scFv, V domains shown, scFv; Frameworks and unchanged CDRs are those of the parental clone) VH: EVQLVESGGGLSQPGNSLQLSCEASGFTFSNHDLNWVRQAPGKGLEWVAYISSASGLISYADAVRGRFTISRDNAKNSLFLQMNNLKSEDTAMYYCARDPAYSGLYALDFWGQGTQVTVSS VL: QPVLTQSPSASASLSGSVKLTCTLSSELSNFTIVWYQQRPDKAPKYVMYLKSDGSHSKGDGIPDRFSGSSSGAHRYLSISNVQSEDDATYFCGAGYTLAGQYGWVFGSGTKVTVL"
3,0.447,"42G2 (scFv, V domains shown, scFv) VH: EVQLVESGGGLSQPGNSLQLSCEASGFTFSNHDLNWVRQAPGKGLEWVAYISSASGLISYADAVRGRFTISRDNAKNSLFLQMNNLKSEDTAMYYCARDPPYSGLYALDFWGQGTQVTVSS VL: QPVLTQSPSASASLSGSVKLTCTLSSELSWYTIVWYQQRPDKAPKYVMYLKSDGSHSKGDGIPDRFSGSSSGAHRYLSISNVQSEDDATYFCGAGYTLAGQYGWVFGSGTKVTVL"
